# In patent US12630600B2 (MEDIMMUNE LIMITED, priority 2022, dated 2026):
# Starred links: 1 amine or outer side, 2 acyl side, 3 side chain; linkers in the order of their positions; H or OH if unused. Non-standard residues stand in square brackets, D forms with d. Groups on a side chain read outwards from the residue. No end group written: not given here. *: point of attachment. β‑dimethylGln = β-dimethylglutamine, CC(C)(CC(N)=O)[C@H](N[*:1])C(=O)[*:2]; C20 diacid = O=C(O)CCCCCCCCCCCCCCCCCCC(=O)*; C18 diacid = O=C(O)CCCCCCCCCCCCCCCCC(=O)*; γGlu = O=C(O)[C@H](CCC(=O)[*:2])N[*:1]; αMeF = C[C@](N)(Cc1ccccc1)C(=O)O; NMeQ = CN[C@@H](CCC(N)=O)C(=O)O; AEEA = NCCOCCOCC(=O)O; Aib = CC(C)(N)C(=O)O
# Key:
# [1] = target: human GLP-1 receptor (human, UniProt P43220); test: cell-based or functional assay
# [2] = target: human glucagon receptor (human, UniProt P47871); test: cell-based or functional assay
Binder,hGLP-1R EC50 (pM) [1] [pM],hGluc-R EC50 (pM) [2] [pM]
H[dS]QGS[αMeF]TSDVSK[αMeF]LDSRAAK([AEEA-AEEA-γGlu-C18 diacid])D[αMeF]VQ[Aib]IANT [Peptide 331],62.6,66.6
H[Aib]HGS[αMeF]TSDVSK[αMeF]LDSRAAK([AEEA-AEEA-γGlu-γGlu-C20 diacid])D[αMeF]VQ[Aib]IANT-OH [Peptide 304],239,687
HS[β‑dimethylGln]GS[αMeF]TSDVSK[αMeF]LDSRAAK([AEEA-AEEA-γGlu-C18 diacid])D[αMeF]VQ[Aib]IANT-NH2 (N-terminus assumed; SMILES CC[C@H](C)[C@H](NC(=O)C(C)(C)NC(=O)[C@H](CCC(N)=O)NC(=O)[C@@H](NC(=O)[C@](C)(Cc1ccccc1)NC(=O)[C@H](CC(=O)O)NC(=O)[C@H](CCCCNC(=O)COCCOCCNC(=O)COCCOCCNC(=O)CC[C@H](NC(=O)CCCCCCCCCCCCCCCCC(=O)O)C(=O)O)NC(=O)[C@H](C)NC(=O)[C@H](C)NC(=O)[C@H](CCCNC(=N)N)NC(=O)[C@H](CO)NC(=O)[C@H](CC(=O)O)NC(=O)[C@H](CC(C)C)NC(=O)[C@](C)(Cc1ccccc1)NC(=O)[C@H](CCCCN)NC(=O)[C@H](CO)NC(=O)[C@@H](NC(=O)[C@H](CC(=O)O)NC(=O)[C@H](CO)NC(=O)[C@@H](NC(=O)[C@](C)(Cc1ccccc1)NC(=O)[C@H](CO)NC(=O)CNC(=O)[C@@H](NC(=O)[C@H](CO)NC(=O)[C@@H](N)Cc1c[nH]cn1)C(C)(C)CC(N)=O)[C@@H](C)O)C(C)C)C(C)C)C(=O)N[C@@H](C)C(=O)N[C@@H](CC(N)=O)C(=O)N[C@H](C(N)=O)[C@@H](C)O) [Peptide 324],1330,1930
H[Aib]HGS[αMeF]TSDVSR[αMeF]LDSRAAK([AEEA-AEEA-γGlu-γGlu-C20 diacid])D[αMeF]VQ[Aib]IANT-NH2 (N-terminus assumed; SMILES CC[C@H](C)[C@H](NC(=O)C(C)(C)NC(=O)[C@H](CCC(N)=O)NC(=O)[C@@H](NC(=O)[C@](C)(Cc1ccccc1)NC(=O)[C@H](CC(=O)O)NC(=O)[C@H](CCCCNC(=O)COCCOCCNC(=O)COCCOCCNC(=O)CC[C@H](NC(=O)CC[C@H](NC(=O)CCCCCCCCCCCCCCCCCCC(=O)O)C(=O)O)C(=O)O)NC(=O)[C@H](C)NC(=O)[C@H](C)NC(=O)[C@H](CCCNC(=N)N)NC(=O)[C@H](CO)NC(=O)[C@H](CC(=O)O)NC(=O)[C@H](CC(C)C)NC(=O)[C@](C)(Cc1ccccc1)NC(=O)[C@H](CCCNC(=N)N)NC(=O)[C@H](CO)NC(=O)[C@@H](NC(=O)[C@H](CC(=O)O)NC(=O)[C@H](CO)NC(=O)[C@@H](NC(=O)[C@](C)(Cc1ccccc1)NC(=O)[C@H](CO)NC(=O)CNC(=O)[C@H](Cc1c[nH]cn1)NC(=O)C(C)(C)NC(=O)[C@@H](N)Cc1c[nH]cn1)[C@@H](C)O)C(C)C)C(C)C)C(=O)N[C@@H](C)C(=O)N[C@@H](CC(N)=O)C(=O)N[C@H](C(N)=O)[C@@H](C)O) [Peptide 298],75.5,573
H[Aib]HGS[αMeF]TSDVSK[αMeF]LDSRAAK([AEEA-AEEA-γGlu-γGlu-C20 diacid])D[αMeF]VQ[Aib]IANT-NH2 (N-terminus assumed; SMILES CC[C@H](C)[C@H](NC(=O)C(C)(C)NC(=O)[C@H](CCC(N)=O)NC(=O)[C@@H](NC(=O)[C@](C)(Cc1ccccc1)NC(=O)[C@H](CC(=O)O)NC(=O)[C@H](CCCCNC(=O)COCCOCCNC(=O)COCCOCCNC(=O)CC[C@H](NC(=O)CC[C@H](NC(=O)CCCCCCCCCCCCCCCCCCC(=O)O)C(=O)O)C(=O)O)NC(=O)[C@H](C)NC(=O)[C@H](C)NC(=O)[C@H](CCCNC(=N)N)NC(=O)[C@H](CO)NC(=O)[C@H](CC(=O)O)NC(=O)[C@H](CC(C)C)NC(=O)[C@](C)(Cc1ccccc1)NC(=O)[C@H](CCCCN)NC(=O)[C@H](CO)NC(=O)[C@@H](NC(=O)[C@H](CC(=O)O)NC(=O)[C@H](CO)NC(=O)[C@@H](NC(=O)[C@](C)(Cc1ccccc1)NC(=O)[C@H](CO)NC(=O)CNC(=O)[C@H](Cc1c[nH]cn1)NC(=O)C(C)(C)NC(=O)[C@@H](N)Cc1c[nH]cn1)[C@@H](C)O)C(C)C)C(C)C)C(=O)N[C@@H](C)C(=O)N[C@@H](CC(N)=O)C(=O)N[C@H](C(N)=O)[C@@H](C)O) [Peptide 305],211,155
H[Aib]QGS[αMeF]TSDVSK[αMeF]LDSRAAKD[αMeF]VQ[Aib]IANT-NH2 (not fully specified (residue 20)) [Peptide 322],68.3,> 24700

# Second part, the binder after the results:
hGLP-1R EC50 (pM) [1] [pM],hGluc-R EC50 (pM) [2] [pM],Binder
151,271,H[Aib]HGS[αMeF]TSDVSK[αMeF]LDSRAAK([AEEA-AEEA-γGlu-γGlu-C20 diacid])D[αMeF]IA[Aib]IAET-NH2 [Peptide 302]
19.7,18.4,H[Aib]HGS[αMeF]TSDVSK[αMeF]LDSRAAK([AEEA-AEEA-γGlu-C18 diacid])D[αMeF]VQ[Aib]IAET-NH2 (N-terminus assumed; SMILES CC[C@H](C)[C@H](NC(=O)C(C)(C)NC(=O)[C@H](CCC(N)=O)NC(=O)[C@@H](NC(=O)[C@](C)(Cc1ccccc1)NC(=O)[C@H](CC(=O)O)NC(=O)[C@H](CCCCNC(=O)COCCOCCNC(=O)COCCOCCNC(=O)CC[C@H](NC(=O)CCCCCCCCCCCCCCCCC(=O)O)C(=O)O)NC(=O)[C@H](C)NC(=O)[C@H](C)NC(=O)[C@H](CCCNC(=N)N)NC(=O)[C@H](CO)NC(=O)[C@H](CC(=O)O)NC(=O)[C@H](CC(C)C)NC(=O)[C@](C)(Cc1ccccc1)NC(=O)[C@H](CCCCN)NC(=O)[C@H](CO)NC(=O)[C@@H](NC(=O)[C@H](CC(=O)O)NC(=O)[C@H](CO)NC(=O)[C@@H](NC(=O)[C@](C)(Cc1ccccc1)NC(=O)[C@H](CO)NC(=O)CNC(=O)[C@H](Cc1c[nH]cn1)NC(=O)C(C)(C)NC(=O)[C@@H](N)Cc1c[nH]cn1)[C@@H](C)O)C(C)C)C(C)C)C(=O)N[C@@H](C)C(=O)N[C@@H](CCC(=O)O)C(=O)N[C@H](C(N)=O)[C@@H](C)O) [Peptide 300]
55.2,12000,H[Aib]QGTFTSDVSK[αMeF]LDSRAAK([AEEA-AEEA-γGlu-C18 diacid])DFVQWIANT-NH2 (not fully specified) [Peptide 318]
929,> 25500,HS[NMeQ]GS[αMeF]TSDVSK[αMeF]LDSRAAK([AEEA-AEEA-γGlu-C18 diacid])D[αMeF]VQ[Aib]IANT-NH2 (N-terminus assumed; SMILES CC[C@H](C)[C@H](NC(=O)C(C)(C)NC(=O)[C@H](CCC(N)=O)NC(=O)[C@@H](NC(=O)[C@](C)(Cc1ccccc1)NC(=O)[C@H](CC(=O)O)NC(=O)[C@H](CCCCNC(=O)COCCOCCNC(=O)COCCOCCNC(=O)CC[C@H](NC(=O)CCCCCCCCCCCCCCCCC(=O)O)C(=O)O)NC(=O)[C@H](C)NC(=O)[C@H](C)NC(=O)[C@H](CCCNC(=N)N)NC(=O)[C@H](CO)NC(=O)[C@H](CC(=O)O)NC(=O)[C@H](CC(C)C)NC(=O)[C@](C)(Cc1ccccc1)NC(=O)[C@H](CCCCN)NC(=O)[C@H](CO)NC(=O)[C@@H](NC(=O)[C@H](CC(=O)O)NC(=O)[C@H](CO)NC(=O)[C@@H](NC(=O)[C@](C)(Cc1ccccc1)NC(=O)[C@H](CO)NC(=O)CNC(=O)[C@H](CCC(N)=O)N(C)C(=O)[C@H](CO)NC(=O)[C@@H](N)Cc1c[nH]cn1)[C@@H](C)O)C(C)C)C(C)C)C(=O)N[C@@H](C)C(=O)N[C@@H](CC(N)=O)C(=O)N[C@H](C(N)=O)[C@@H](C)O) [Peptide 325]
312,70.3,H[Aib]QGTFTSDYSK[αMeF]LD[αMeF]RRAK([γGlu-C18 diacid])DFVQWLL[Aib]T-OH (N-terminus assumed; SMILES CC(C)C[C@H](NC(=O)[C@H](Cc1c[nH]c2ccccc12)NC(=O)[C@H](CCC(N)=O)NC(=O)[C@@H](NC(=O)[C@H](Cc1ccccc1)NC(=O)[C@H](CC(=O)O)NC(=O)[C@H](CCCCNC(=O)CC[C@H](NC(=O)CCCCCCCCCCCCCCCCC(=O)O)C(=O)O)NC(=O)[C@H](C)NC(=O)[C@H](CCCNC(=N)N)NC(=O)[C@H](CCCNC(=N)N)NC(=O)[C@](C)(Cc1ccccc1)NC(=O)[C@H](CC(=O)O)NC(=O)[C@H](CC(C)C)NC(=O)[C@](C)(Cc1ccccc1)NC(=O)[C@H](CCCCN)NC(=O)[C@H](CO)NC(=O)[C@H](Cc1ccc(O)cc1)NC(=O)[C@H](CC(=O)O)NC(=O)[C@H](CO)NC(=O)[C@@H](NC(=O)[C@H](Cc1ccccc1)NC(=O)[C@@H](NC(=O)CNC(=O)[C@H](CCC(N)=O)NC(=O)C(C)(C)NC(=O)[C@@H](N)Cc1c[nH]cn1)[C@@H](C)O)[C@@H](C)O)C(C)C)C(=O)N[C@@H](CC(C)C)C(=O)NC(C)(C)C(=O)N[C@H](C(=O)O)[C@@H](C)O) [Peptide 339]
22.6,4400,H[Aib]QGT[αMeF]TSDVSK[αMeF]LDSRAAK([AEEA-AEEA-γGlu-C18 diacid])D[αMeF]VQ[Aib]IANT-NH2 (not fully specified) [Peptide 321]
18.1,5850,H[Aib]QGTFTSDVSK[αMeF]LDSRAAK([AEEA-AEEA-γGlu-C18 diacid])DFVQ[Aib]LVAT-NH2 (not fully specified) [Peptide 315]
